Legend:
[1] = target: FcεRI alpha chain on CHO 3D10 cells (UniProt P12319); assay: FACS, CHO 3D10 cells, 5 ug/ml
[2] = target: FcεRI alpha chain on CHO 3D10 cells (UniProt P12319); assay: FACS, CHO 3D10 cells, 10 ug/ml
[3] = target: FcεRII (CD23) on IM9 B cells (human) (UniProt P06734); assay: FACS, IM9 cells, 5 ug/ml
[4] = target: FcεRI alpha chain on CHO 3D10 cells (UniProt P12319); assay: FACS, CHO 3D10 cells, 0.5 ug/ml
[5] = target: FcεRII (CD23) on IM9 B cells (human) (UniProt P06734); assay: FACS, IM9 cells, 0.1 ug/ml
[6] = target: FcεRI alpha chain on CHO 3D10 cells (UniProt P12319); assay: FACS, CHO 3D10 cells, 0.1 ug/ml
[7] = target: FcεRII (CD23) on IM9 B cells (human) (UniProt P06734); assay: FACS, IM9 cells, 10 ug/ml

FcεRII (CD23) on IM9 B cells (human), sequence (P06734 whole entry): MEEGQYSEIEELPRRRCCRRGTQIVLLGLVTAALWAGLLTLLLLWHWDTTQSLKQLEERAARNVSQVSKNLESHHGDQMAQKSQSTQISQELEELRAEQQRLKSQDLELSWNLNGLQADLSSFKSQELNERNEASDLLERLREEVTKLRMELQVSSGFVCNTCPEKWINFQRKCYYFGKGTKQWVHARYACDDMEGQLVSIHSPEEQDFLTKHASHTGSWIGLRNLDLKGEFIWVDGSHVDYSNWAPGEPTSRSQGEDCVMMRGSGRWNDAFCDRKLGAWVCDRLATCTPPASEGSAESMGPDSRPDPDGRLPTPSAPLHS
FcεRI alpha chain on CHO 3D10 cells, sequence (P12319 26-257 limits assumed): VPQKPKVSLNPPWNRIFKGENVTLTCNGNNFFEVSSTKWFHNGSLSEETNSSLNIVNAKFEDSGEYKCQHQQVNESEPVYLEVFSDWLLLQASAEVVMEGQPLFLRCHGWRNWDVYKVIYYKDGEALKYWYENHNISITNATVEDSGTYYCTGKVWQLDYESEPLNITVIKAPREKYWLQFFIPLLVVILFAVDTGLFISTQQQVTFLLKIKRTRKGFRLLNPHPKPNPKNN

% CHO 3D10(+) [1]: 89.9% | % CHO 3D10(+) [2]: 90.3% | % IM9 (+) [3]: 82.6% | % CHO 3D10(+) [4]: 59.6% | % IM9 (+) [5]: 1.7% | % CHO 3D10(+) [6]: 15.8% | % IM9 (+) [7]: 92.5%
Substance: human IgE purified from U266B1 cells (from UniProt P01854 1-428) (antibody)
